Reference: patent US20160310583A1, “TUMOR ANTIGEN PEPTIDE” (Sumitomo Dainippon Pharma Co., Ltd., priority 2013, published 2016)
Values joined by “and” are separate entries in the source; they are usually repeats but may differ in a detail not shown here. Equal values may be shown once. “Also recorded” adds a separate entry of the source.

Columns and labels:
HLA-A*02:01 = biological target: T1, HLA-A*02:01 (Homo sapiens, UniProt P04439, D140Y/D185E/D98H/E176V/E277Q/G131W/G231S/I119V/I121R/I166T/I218V/L300P/L318F/N151K/N90K/P208A/P217A/Q86G/Q94H/R138H/R169H/T345S); type: binding
T1 construct: T2 cells can usually only express a low level of empty MHC class I molecules on the cell surface; endogenous in cells; host or cells: T2-A24 cells (human lymphoblastoid T2 cells, TAP-deficient)

[1] = tested on: HLA-A*02:01 transgenic mouse; test: In vivo CTL induction test, IFNγ ELISPOT of spleen cells, HLA-A*02:01 transgenic mouse; details: 250 μg/location intradermal with IFA, spleen after one week
Source text: (§1) An HLA-A*02:01 transgenic mouse (C57BL/6CrHLA-A2.1DR1) is a mouse that is deficient in mouse MHC and expresses HLA-A*02:01 and HLA-DRB1*01:01, which are human MHCs, and the use of this mouse enables a peptide that can induce CTLs in humans to be selected. Furthermore, an HLA-A*24:02 transgenic mouse is a mouse that expresses HLA-A*24:02, which is a human MHC, and the use of this mouse enables a peptide that can induce CTLs in a human to be selected. Whether or not each peptide has an activity in inducing CTLs was determined by whether or not T cells that can react with the administered peptide are induced by administering the peptide to the mouse.
(§2) Specifically, it was carried as follows. First, the peptide was dissolved in dimethyl sulfoxide at 80 mg/mL, then diluted with water for injection, and mixed with an equal part of incomplete Freund's adjuvant (IFA or ISA51VG), thus forming an emulsion. The peptide thus emulsified was administered to the mouse tail base intradermally at two locations at a dose of 250 μg/location. One week after that, the mouse was euthanized with CO2 gas, the spleen was removed, and spleen cells were prepared. For measurement of IFNγ production, an IFNγ ELISPOT assay kit (Becton, Dickinson and Company) was used. On the day before preparing the spleen cells, an ELISPOT plate was treated with an anti-IFNγ antibody, and on the day it was blocked with 10% FBS-containing RPMI 1640 medium. The spleen cells prepared were plated on the blocked ELISPOT plate at 0.25 to 1.0×10^6 cells/well. The administered FAM83B-derived peptide was dissolved in DMSO at 40 mg/mL and further diluted with 10% RPMI 1640 medium to 20 μg/mL. The diluted peptide was added at 50 μL/well to the spleen cells derived from the animal to which the peptide had been administered. In vitro peptide restimulation was applied by culturing the spleen cells to which the peptide was added under 5% CO2 at 37° C. for 16 to 18 hours. After culturing, the supernatant was removed, and the ELISPOT plate was subjected to color development in accordance with the included protocol. The number of color developed spots was measured by KS-ELISPOT.

HLA-A*24:02 = HLA-A*24:02 (Homo sapiens, UniProt P04439, D101N/D140Y/D185E/E176V/E190D/F33S/G103R/G107R/I119L/I121M/I306V/K335N/L105A/L180Q/L300P/N151K/N90K/Q86E/Q94H/R106L/R138H/R89G/T104I/T345S/V100E/W191G/Y123F); type: binding
[2] = tested on: HLA-A*24:02 transgenic mouse; test: In vivo CTL induction test, IFNγ ELISPOT of spleen cells, HLA-A*24:02 transgenic mouse; details: 250 μg/location intradermal with IFA, spleen after one week
Source text: as §1, §2

FLAEEEINYI [Peptide F55_10] was tested, and the “binding to HLA-A02 (in words)” value (HLA-A*02:01) was “capable of binding to HLA-A02” and the “CTL inducibility (peptide-specific IFNγ production in spleen cells)” value (“CTL inducibility” for short) [1] was “having CTL inducibility”.
YILKNVQKV [Peptide F63_9] was tested, and the “binding to HLA-A02 (in words)” value (HLA-A*02:01) was “capable of binding to HLA-A02” and the “CTL inducibility” value [1] was “having CTL inducibility”.
“RGYVYQGL [HLA-A*24:02 Negative control, reference compound]” was tested, and the “HLA-A*24:02 Negative control, MFI as solvent ratio” value (HLA-A*24:02) was 1.0 and 1.1.
With SMVQIITGQLV [Peptide F256_11] the “binding to HLA-A02 (in words)” value (HLA-A*02:01) was “capable of binding to HLA-A02” and the “CTL inducibility” value ([1]; listed as SEQ ID No: 60) was “had CTL inducibility; also recorded: having CTL inducibility”.
With PLPESIPKL [Peptide F594_9] the “Evaluation results HLA-A0201, mean fluorescence intensity (MFI) as solvent ratio” value (HLA-A*02:01) was 1.4.
With SYMWSFEKAHL [Peptide F245_11] the “binding to HLA-A24 (in words)” value (HLA-A*24:02) was “capable of binding to HLA-A024” and the “CTL inducibility” value ([2]; listed as SEQ ID No: 12) was “had CTL inducibility; also recorded: having CTL inducibility”.
For NLDLGWPYV [Peptide F103_9], the “binding to HLA-A02 (in words)” value (HLA-A*02:01) was “capable of binding to HLA-A02” and the “CTL inducibility” value [1] was “having CTL inducibility”.
For FLAEEEINYIL [Peptide F55_11], the “binding to HLA-A02 (in words)” value (HLA-A*02:01) was “capable of binding to HLA-A02” and the “CTL inducibility” value [1] was “having CTL inducibility”.
In the case of PFCKIESSI [Peptide F939_9], the “binding to HLA-A24 (in words)” value (HLA-A*24:02) is reported as “capable of binding to HLA-A024” and the “CTL inducibility” value ([2]; listed as SEQ ID No: 23) is reported as “had CTL inducibility; also recorded: having CTL inducibility”.
For TYQHSVSSL [Peptide F305_9], the “binding to HLA-A24 (in words)” value (HLA-A*24:02) was “capable of binding to HLA-A024” and the “CTL inducibility” value ([2]; listed as SEQ ID No: 15) was “had CTL inducibility; also recorded: having CTL inducibility”.
With GWPYVMPGLL [Peptide F107_10] the “binding to HLA-A24 (in words)” value (HLA-A*24:02) was “capable of binding to HLA-A024” and the “CTL inducibility” value ([2]; listed as SEQ ID No: 6) was “had CTL inducibility; also recorded: having CTL inducibility”.
With VYILLDESNF [Peptide F176_10] the “binding to HLA-A24 (in words)” value (HLA-A*24:02) was “capable of binding to HLA-A024” and the “CTL inducibility” value ([2]; listed as SEQ ID No: 9) was “had CTL inducibility; also recorded: having CTL inducibility”.
VMYGSYSYMW [Peptide F239_10] was tested, and the “binding to HLA-A24 (in words)” value (HLA-A*24:02) was “capable of binding to HLA-A024” and the “CTL inducibility” value [2] was “having CTL inducibility”.
In the case of LVQERVSDFL [Peptide F47_10], the “binding to HLA-A24 (in words)” value (HLA-A*24:02) is reported as “capable of binding to HLA-A024” and the “CTL inducibility” value ([2]; listed as SEQ ID No: 75) is reported as “had CTL inducibility; also recorded: having CTL inducibility”.
In the case of VIALVMDIFT [Peptide F149_10], the “binding to HLA-A24 (in words)” value (HLA-A*24:02) is reported as “capable of binding to HLA-A024” and the “CTL inducibility” value [2] is reported as “having CTL inducibility”.
With KVMYGSYSYMWSF [Peptide F238_13] the “binding to HLA-A24 (in words)” value (HLA-A*24:02) was “capable of binding to HLA-A024” and the “CTL inducibility” value [2] was “having CTL inducibility”.
NYIEPHYKEW [Peptide F18_10] was tested, and the “binding to HLA-A24 (in words)” value (HLA-A*24:02) was “capable of binding to HLA-A024” and the “CTL inducibility” value ([2]; listed as SEQ ID No: 74) was “had CTL inducibility; also recorded: having CTL inducibility”.
With LYARSCVPSSF [Peptide F276_11] the “binding to HLA-A24 (in words)” value (HLA-A*24:02) was “capable of binding to HLA-A024” and the “CTL inducibility” value ([2]; listed as SEQ ID No: 14) was “had CTL inducibility; also recorded: having CTL inducibility”.
For VMDIFTDVDIF [Peptide F153_11], the “binding to HLA-A24 (in words)” value (HLA-A*24:02) was “capable of binding to HLA-A024” and the “CTL inducibility” value [2] was “having CTL inducibility”.
SYGRSSPLL [Peptide F971_9] was tested, and the “binding to HLA-A24 (in words)” value (HLA-A*24:02) was “capable of binding to HLA-A024” and the “CTL inducibility” value ([2]; listed as SEQ ID No: 24) was “had CTL inducibility; also recorded: having CTL inducibility”.
In the case of “EADPTGHSY [HLA-A*02:01 Negative control, MAGE-1161-169 peptide as an HLA-A02-negative control, reference compound]”, the “HLA-A*02:01 Negative control, MFI as solvent ratio” value (HLA-A*02:01) is reported as 1.1 and 1.0.
For FLVQERVSDFL [Peptide F46_11], the “Evaluation results HLA-A0201, mean fluorescence intensity (MFI) as solvent ratio” value (HLA-A*02:01) was 1.4.
